Test system: Bacillus subtilis
Test: cleaved RNA product abundance (RNA/gDNA barcode ratio) relative to median wild-type variant (ratio to wild type); higher = more accumulation of the downstream cleavage product
Conditions: cleavage site: cggR-gapA (positions -7 to +36 mutated)
In short: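 Cleaved product abundance was measured with barcoded reporter mRNAs (truncated aprE or tetM) carrying mutagenized RNase Y cleavage-site windows in the B. subtilis chromosome. Cultures in LB at 37°C grew from OD600 0.0003 to 0.3. Gel-selected cleaved RNA was reverse transcribed and barcode-sequenced with genomic DNA barcodes, and the RNA:gDNA barcode ratio per construct was scaled to the median construct bearing the unmutated site.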

[1] = experiment (reporter, strain, medium): exp 4a: truncated aprE reporter, strain BJT201 with 2% xylose (RNase J1 expressed)
[2] = experiment (reporter, strain, medium): exp 6: tetM reporter, strain 168
[3] = experiment (reporter, strain, medium): exp 2b: truncated aprE reporter, strain BJT200

ACAGACGAAGGAGCCGCAAAGAAGTTTTTAACGGATGAATAATCCCTCAATATAAATATCTCTCACTTATTTAAA
cleaved RNA product abundance [1]: 0.197
cleaved RNA product abundance [2]: 0.192

ACAGACGAAGGAGCCGCAAAGAAGTTTTTAAGAGATGAATAATCCCTCAATATAAATATCTCTCACTTATTTAAA
cleaved RNA product abundance [1]: 0.183

ACAGACGAAGGAGCCGCAAAGAAGTTTTTAAGGAATGAATAATCCCTCAATATAAATATCTCTCACTTATTTAAA
cleaved RNA product abundance [3]: 0.0825
cleaved RNA product abundance [1]: 0.163

ACAGACGAAGGAGCCGCAAAGAAGTTTTTAAGGCATGAATAATCCCTCAATATAAATATCTCTCACTTATTTAAA
cleaved RNA product abundance [1]: 0.119

ACAGACGAAGGAGCCGCAAAGAAGTTTTTAAGGGAAGAATAATCCCTCAATATAAATATCTCTCACTTATTTAAA
cleaved RNA product abundance [3]: 0.128
cleaved RNA product abundance [1]: 0.149

ACAGACGAAGGAGCCGCAAAGAAGTTTTTAAGGGACGAATAATCCCTCAATATAAATATCTCTCACTTATTTAAA
cleaved RNA product abundance [1]: 0.444

ACAGACGAAGGAGCCGCAAAGAAGTTTTTAAGGGATAAATAATCCCTCAATATAAATATCTCTCACTTATTTAAA
cleaved RNA product abundance [1]: 0.214

ACAGACGAAGGAGCCGCAAAGAAGTTTTTAAGGGATCAATAATCCCTCAATATAAATATCTCTCACTTATTTAAA
cleaved RNA product abundance [1]: 0.289

ACAGACGAAGGAGCCGCAAAGAAGTTTTTAAGGGATGAAAAATCCCTCAATATAAATATCTCTCACTTATTTAAA
cleaved RNA product abundance [1]: 0.293

ACAGACGAAGGAGCCGCAAAGAAGTTTTTAAGGGATGAATAAACCCTCAATATAAATATCTCTCACTTATTTAAA
cleaved RNA product abundance [1]: 0.17

ACAGACGAAGGAGCCGCAAAGAAGTTTTTAAGGGATGAATAATCACTCAATATAAATATCTCTCACTTATTTAAA
cleaved RNA product abundance [3]: 0.125
cleaved RNA product abundance [1]: 0.0945

ACAGACGAAGGAGCCGCAAAGAAGTTTTTAAGGGATGAATAATCCATCAATATAAATATCTCTCACTTATTTAAA
cleaved RNA product abundance [3]: 0.178
cleaved RNA product abundance [1]: 0.189

ACAGACGAAGGAGCCGCAAAGAAGTTTTTAAGGGATGAATAATCCCACAATATAAATATCTCTCACTTATTTAAA
cleaved RNA product abundance [1]: 0.251

ACAGACGAAGGAGCCGCAAAGAAGTTTTTAAGGGATGAATAATCCCGCAATATAAATATCTCTCACTTATTTAAA
cleaved RNA product abundance [1]: 0.137

ACAGACGAAGGAGCCGCAAAGAAGTTTTTAAGGGATGAATAATCCCTAAATATAAATATCTCTCACTTATTTAAA
cleaved RNA product abundance [3]: 0.364

ACAGACGAAGGAGCCGCAAAGAAGTTTTTAAGGGATGAATAATCCCTCAACATAAATATCTCTCACTTATTTAAA
cleaved RNA product abundance [1]: 0.295

ACAGACGAAGGAGCCGCAAAGAAGTTTTTAAGGGATGAATAATCCCTCAATAAAAATATCTCTCACTTATTTAAA
cleaved RNA product abundance [1]: 0.0781

ACAGACGAAGGAGCCGCAAAGAAGTTTTTAAGGGATGAATAATCCCTCAATATAAACATCTCTCACTTATTTAAA
cleaved RNA product abundance [1]: 0.208

ACAGACGAAGGAGCCGCAAAGAAGTTTTTAAGGGATGAATAATCCCTCAATATAAATATCTCTCACTTATTTAAA
cleaved RNA product abundance [3]: 0.274
cleaved RNA product abundance [1]: 0.365
cleaved RNA product abundance [2]: 0.209

ACAGACGAAGGAGCCGCAAAGAAGTTTTTAAGGGATGAATAATCCCTCAATATACATATCTCTCACTTATTTAAA
cleaved RNA product abundance [1]: 0.364

ACAGACGAAGGAGCCGCAAAGAAGTTTTTAAGGGATGAATAATCCCTCAATTTAAATATCTCTCACTTATTTAAA
cleaved RNA product abundance [1]: 0.188

ACAGACGAAGGAGCCGCAAAGAAGTTTTTAAGGGATGAATAATCCCTCACTATAAATATCTCTCACTTATTTAAA
cleaved RNA product abundance [1]: 0.267

ACAGACGAAGGAGCCGCAAAGAAGTTTTTAAGGGATGAATAATCCCTCATTATAAATATCTCTCACTTATTTAAA
cleaved RNA product abundance [1]: 0.405

ACAGACGAAGGAGCCGCAAAGAAGTTTTTAAGGGATGAATAATCCCTTAATATAAATATCTCTCACTTATTTAAA
cleaved RNA product abundance [3]: 0.844
cleaved RNA product abundance [1]: 0.798

ACAGACGAAGGAGCCGCAAAGAAGTTTTTAAGGGATGAATAATCCGTCAATATAAATATCTCTCACTTATTTAAA
cleaved RNA product abundance [3]: 0.133
cleaved RNA product abundance [1]: 0.321

ACAGACGAAGGAGCCGCAAAGAAGTTTTTAAGGGATGAATAATGCCTCAATATAAATATCTCTCACTTATTTAAA
cleaved RNA product abundance [3]: 0.121
cleaved RNA product abundance [1]: 0.17

ACAGACGAAGGAGCCGCAAAGAAGTTTTTAAGGGATGAATAATTCCTCAATATAAATATCTCTCACTTATTTAAA
cleaved RNA product abundance [3]: 0.177
cleaved RNA product abundance [1]: 0.195

ACAGACGAAGGAGCCGCAAAGAAGTTTTTAAGGGATGAATATTCCCTCAATATAAATATCTCTCACTTATTTAAA
cleaved RNA product abundance [3]: 0.214
cleaved RNA product abundance [1]: 0.341

ACAGACGAAGGAGCCGCAAAGAAGTTTTTAAGGGATGACTAATCCCTCAATATAAATATCTCTCACTTATTTAAA
cleaved RNA product abundance [3]: 0.201
cleaved RNA product abundance [1]: 0.212

ACAGACGAAGGAGCCGCAAAGAAGTTTTTAAGGGATGAGTAATCCCTCAATATAAATATCTCTCACTTATTTAAA
cleaved RNA product abundance [1]: 0.235

ACAGACGAAGGAGCCGCAAAGAAGTTTTTAAGGGATGTATAATCCCTCAATATAAATATCTCTCACTTATTTAAA
cleaved RNA product abundance [3]: 0.285
cleaved RNA product abundance [1]: 0.331

ACAGACGAAGGAGCCGCAAAGAAGTTTTTAAGGGATTAATAATCCCTCAATATAAATATCTCTCACTTATTTAAA
cleaved RNA product abundance [3]: 0.364
cleaved RNA product abundance [1]: 0.364

ACAGACGAAGGAGCCGCAAAGAAGTTTTTAAGGGTTGAATAATCCCTCAATATAAATATCTCTCACTTATTTAAA
cleaved RNA product abundance [3]: 0.166
cleaved RNA product abundance [1]: 0.271

ACAGACGAAGGAGCCGCAAAGAAGTTTTTAAGGTATGAATAATCCCTCAATATAAATATCTCTCACTTATTTAAA
cleaved RNA product abundance [1]: 0.098

ACAGACGAAGGAGCCGCAAAGAAGTTTTTAAGTGATGAATAATCCCTCAATATAAATATCTCTCACTTATTTAAA
cleaved RNA product abundance [3]: 0.117
cleaved RNA product abundance [1]: 0.0945

ACAGACGAAGGAGCCGCAAAGAAGTTTTTAATGGATGAATAATCCCTCAATATAAATATCTCTCACTTATTTAAA
cleaved RNA product abundance [1]: 0.175

ACAGACGAAGGAGCCGCAAAGAAGTTTTTAGGGGATGAATAATCCCTCAATATAAATATCTCTCACTTATTTAAA
cleaved RNA product abundance [1]: 0.507

ACAGACGAAGGAGCCGCAAAGAAGTTTTTATGGGATGAATAATCCCTCAATATAAATATCTCTCACTTATTTAAA
cleaved RNA product abundance [1]: 0.323

ACAGACGAAGGAGCCGCAAAGAATATATTAAGGGATGAATAATCCCTCAATATAAATATCTCTCACTTATTTAAA
cleaved RNA product abundance [1]: 0.375

ACAGACGAAGGAGCCGCAAAGAATCTATTAAGGGATGAATAATCCCTCAATATAAATATCTCTCACTTATTTAAA
cleaved RNA product abundance [1]: 0.689

ACAGACGAAGGAGCCGCAAAGAATGTATTAAGGGATGAATAATCCCTCAATATAAATATCTCTCACTTATTTAAA
cleaved RNA product abundance [1]: 0.695

ACAGACGAAGGAGCCGCAAAGAATTAATTAAGGGATGAATAATCCCTCAATATAAATATCTCTCACTTATTTAAA
cleaved RNA product abundance [3]: 0.257
cleaved RNA product abundance [1]: 0.36

ACAGACGAAGGAGCCGCAAAGAATTCATTAAGGGATGAATAATCCCTCAATATAAATATCTCTCACTTATTTAAA
cleaved RNA product abundance [3]: 0.196
cleaved RNA product abundance [1]: 0.23

ACAGACGAAGGAGCCGCAAAGAATTGATTAAGGGATGAATAATCCCTCAATATAAATATCTCTCACTTATTTAAA
cleaved RNA product abundance [1]: 0.439

ACAGACGAAGGAGCCGCAAAGAATTTAATAAGGGATGAATAATCCCTCAATATAAATATCTCTCACTTATTTAAA
cleaved RNA product abundance [3]: 0.25
cleaved RNA product abundance [1]: 0.309

ACAGACGAAGGAGCCGCAAAGAATTTACTAAGGGATGAATAATCCCTCAATATAAATATCTCTCACTTATTTAAA
cleaved RNA product abundance [3]: 0.251
cleaved RNA product abundance [1]: 0.31

ACAGACGAAGGAGCCGCAAAGAATTTAGTAAGGGATGAATAATCCCTCAATATAAATATCTCTCACTTATTTAAA
cleaved RNA product abundance [1]: 0.337

ACAGACGAAGGAGCCGCAAAGAATTTATAAAGGGATGAATAATCCCTCAATATAAATATCTCTCACTTATTTAAA
cleaved RNA product abundance [3]: 0.355
cleaved RNA product abundance [1]: 0.481
cleaved RNA product abundance [2]: 0.219

ACAGACGAAGGAGCCGCAAAGAATTTATCAAGGGATGAATAATCCCTCAATATAAATATCTCTCACTTATTTAAA
cleaved RNA product abundance [3]: 0.275
cleaved RNA product abundance [1]: 0.377

ACAGACGAAGGAGCCGCAAAGAATTTATGAAGGGATGAATAATCCCTCAATATAAATATCTCTCACTTATTTAAA
cleaved RNA product abundance [1]: 0.325

ACAGACGAAGGAGCCGCAAAGAATTTATTAAAGGATGAAAAATCCCTCAATATAAATATCTCTCACTTATTTAAA
cleaved RNA product abundance [1]: 0.197

ACAGACGAAGGAGCCGCAAAGAATTTATTAAAGGATGAATAATCCCTCAATATAAATATCTCTCACTTATTTAAA
cleaved RNA product abundance [3]: 0.171
cleaved RNA product abundance [1]: 0.213

ACAGACGAAGGAGCCGCAAAGAATTTATTAACGGATGAATAATCCCTCAATATAAATATCTCTCACTTATTTAAA
cleaved RNA product abundance [1]: 0.203

ACAGACGAAGGAGCCGCAAAGAATTTATTAAGAGATGAATAATCCCTCAATATAAATATCTCTCACTTATTTAAA
cleaved RNA product abundance [3]: 0.112
cleaved RNA product abundance [1]: 0.142

ACAGACGAAGGAGCCGCAAAGAATTTATTAAGCGATGAATAATCCCTCAATATAAATATCTCTCACTTATTTAAA
cleaved RNA product abundance [3]: 0.116
cleaved RNA product abundance [1]: 0.122

ACAGACGAAGGAGCCGCAAAGAATTTATTAAGGAATGAATAATCCCTCAATATAAATATCTCTCACTTATTTAAA
cleaved RNA product abundance [3]: 0.0897
cleaved RNA product abundance [1]: 0.125

ACAGACGAAGGAGCCGCAAAGAATTTATTAAGGCATGAATAATCCCTCAATATAAATATCTCTCACTTATTTAAA
cleaved RNA product abundance [3]: 0.1
cleaved RNA product abundance [1]: 0.111

ACAGACGAAGGAGCCGCAAAGAATTTATTAAGGCATGAATAATCCCTCTATATAAATATCTCTCACTTATTTAAA
cleaved RNA product abundance [1]: 0.107
